Among the data in patent US20140249052A1 are Intensity (AU) values, retold here.

The experiment has as its target Bio-GrBP5 (biotin-graphite binding peptide fusion, Bio-…). Briefly: integrated photoluminescence at 605 nm (514 nm laser) of SA-QD immobilised on bio-GrBP5 nanowires on graphite; the row 'SA-QD Bare' (38019.9, Std. Dev. 8427) is on graphite without peptide.

The substance “Cd-Se Qdot 605-streptavidin conjugate (Q10101MP, Life Technologies) (from UniProt P22629 37-163)” registered an Intensity (AU) of 88200 AU.
